In the DeepSol protein solubility set:

test: soluble on expression in E. coli; label from the status in PepcDB or PDB records

Sequence	soluble on expression in E. coli
SLTEKDVLSQEEIDALLDSVDESIDGETNDEELNSSDQPARKKPEDTTGQELNSTFDSDIKVAEEGVKTLNFTGQERIVKGQLPVLDKIYDRAVRLFAADIYHLTARDFEIKQDPLLITKHKEFMRSLPNPSLIGIYKFKPLRGKGIILFDSTFVYDLVDYYFGGNSQFGAQKDKTDFTATELRVMEVVTKKLVTNLTHAWEPIIQLDVTKFNDETNPQLVNIAEPEEMLLVARFLLNFGKETGAFYFILPYSMLEPIKQQLELGASRPDDEIDPNWINSLKEELMDVELTVSASMAETVSTLGQVMAWKVGDFVPLEINEEVTLDIEGTPSFTATLGSANEKRALKIIKIIRY	soluble
MSLEWTKLTGTLKPDKDVKRGMLAIQPLGKGQFQLDVVSLFPSDTWDNGKSVFRADIMQNLKEYAPDFIRFPGGCIVHGVNEATMYHWKKTIGPIENRPGQWSKWAPYYRTDGIGYHEFYELCEYLGADAMYVIPTGMICTGWVKQSSPWNFIQPDVDLDAYIQDALDAIEYAIGPETSKWGALRVKNGHPKPFPLKYIEIGNEDFGPVYWERYEKIYQALHRQYPDLIYIANSIIGKENDDKRIDIAKFVNPKNVKVFDEHHYQPVEWACKQHYRFDNYERGIADLFVGELGIDGKYPYNLLASGAVRMSLERNGDLNPLLAERPVMRHWDFSEHRQLHSMLINGVDCSIRTSFYYLSKMFRDHTFDVCLDAGIQGMKGLQNVFVTMGYDSESKEYILKLINLRKQEVVLQTAVKGFGKKIQAQKITLSLEPGKNNTPEMPDAVKPVQSTVTLDLNKDLQLEASSMIVYRFKEGHHHHHH	not soluble
MREKLTVIKVGGKIVEEEATLLQLLNDFAAISGHKVLVHGGGRSATKIAAQLGIESKMVNGRRITDAETLKVVTMVYGGLVNKNIVAGLQARGVNALGLTGADMNVIRSVKRPVKEVDYGFVGDVEKVDASLLADLIHKGVVPVMAPLTHDGQGNMLNTNADTIAGETAKALSALFDVTLVYCFEKKGVLRDENDDDSVIPEITRAEFEQYVADGVIQGGMIPKLENSFEAINAGVTEVVITLASAIKDNEGTRIKK	not soluble
MKLTLWTYEGPPHVGAMRVATAMKDLQLVLHGPQGATYADLLFTMIERRNARPPVSFSTFEASHMGTDTAILLKDALAAAHARYKPQAMAVALTCTAELLQDDPNGISRALNLPVPVVPLELPSYSRKENYGADETFRALVRALAVPMERTPEVTCNLLGATALGFRHRDDVAEVTKLLATMGIKVNVCAPLGASPDDLRKLGQAHFNVLMYPETGESAARHLERACKQPFTKIVPIGVGATRDFLAEVSKITGLPVVTDESTLRQPWWSASVDSTYLTGKRVFIFGDGTHVIAAARIAAKEVGFEVVGMGCYNREMARPLRTAAAEYGLEALITDDYLEVEKAIEAAAPELILGTQMERNIAKKLGLPCAVISAPVHVQDFPARYAPQMGFEGANVLFDTWVHPLVMGLEEHLLTMFREDFEFHDAAGASHHGGKAVAREESPVAPADLAPAATSDTPAAPSPVVVTQASGEIRWMPEAERELRKIPFFVRGKAKRNTELYAAHKGVCDITVETLYEAKAHYAR	soluble
GSHMTTSSRYKTELCRTYSESGRCRYGAKCQFAHGLGELRQANRHPKYKTELCHKFKLQGRCPYGSRCHFIHNPTED	soluble
MTIEDTVIKLIGSLKDPLLDLTGKEMNLQYKITTSNQAMHVVLTAGYPTSLLETSYKPIVQKIVQDEFPNYQVTISIQQFIKAHKTQLTGKALRGVKNTIAVASGKGGVGKSTVTVNLAAALAKLGARVGILDADIYGPSIPLMLGETKPVQVKDNCYIPVEAHGMQAMSIGYLTDTNQALIWRGPMLAKSLIQMLDITLWNELDYLFIDLPPGTGDIQLTLVQKIPLTSAIVVTTPQNVATLDAQKAITMFSRTGIDVLGIIENMSTHICSHCGHQEAIFGRGGAAALCDAYQCTLLGQLPLDSHVRRHCDEGVPTATHSSNQLTDTFIKTAMRTAIELSKKPINYADRFPKIVVEAAALEHHHHHH	soluble
MVRTINLYYNNRTVQAIVELKNKPARWHKAKKVQLTPGQTEVKIDLPLPIVASNLMIEFADFYENYQASTETLQCPRCSASVPANPGVCGNCGENVYQCHKCRSINYDEKDPFLCNACGFCKYARFDFMLYAKPCCAVDPIENEEDRKKAVSNINTLLDKADRVYHQLMGHRPQLENLLCKVNEAAPEKPQVVPRCKGHLDKGLGLDQKTAS	not soluble
MAHHHHHHMSSNDGLSEDTVMYIKDNNIGQLMEYILRCIITDKPTKPLEYVHELTASPLPPRVVLAGPPASGKGTQARHICSYYKRAIGKKPVHVSSGDLLRAEVAQGTHLGKIAENFMQRGELVPDSLIISIIRNRLTQEDAVMNGWLLDGFPRTRSQAIALDAAGLCPRIFVVLDTPDDVLFGRVEGRRTDPVTGIIYHLKYNPPPENDTALLERLQHRDDDTREVLGPRLETYHSMVEGLLDYYGSIMYHVDGNRPEAAITKDITEYLQNHNVA	soluble
MPPKKDPKGGKAPPSKKKEGSGGGKAKKKKWSKGKVRDKLNNMVLFDQATYDKLYKEVITYKLITPSVVSERLKVRASLAKAGLKELQAKGLVKCVVHHHGQVVYTRATKEADVIVE	soluble
MSLNVQTVAVIGSGTMGAGIAEVAASHGHQVLLYDISAEALTRAIDGIHARLNSRVTRGKLTAETCERTLKRLIPVTDIHALAAADLVIEAASERLEVKKALFAQLAEVCPPQTLLTTNTSSISITAIAAEIKNPERVAGLHFFNPAPVMKLVEVVSGLATAAEVVEQLCELTLSWGKQPVRCHSTPGFIVNRVARPYYSEAWRALEEQVAAPEVIDAALRDGAGFPMGPLELTDLIGQDVNFAVTCSVFNAFWQERRFLPSLVQQELVIGGRLGKKSGLGVYDWRAEREAVVGLEAVSDSFSPMKVEKKSDGVTEIDDVLLIETQGETAQALAIRLARPVVVIDKMAGKVVTIAAAAVNPDSATRKAIYYLQQQGKTVLQIADYPGMLIWRTVAMIINEALDALQKGVASEQDIDTAMRLGVNYPYGPLAWGAQLGWQRILRLLENLQHHYGEERYRPCSLLRQRALLESGYESEGHHHHHH	soluble
MKELLKELVEKNRKFTADGNVANYIPELDKADKNALGIYVTTLDGQEFFAGDYNTKFTIQSISKIISLMLAILDNGEEYVFSKVGMEPSGDPFNSIRKLETSSRKKPYNPMINAGAIAVASMIKGKDDREKFSRLLNFAKLITEDDSLDLNYKIYIGESDTGFRNYSMAYFLKGEGIIEGNVNEALTVYFKQCSIEGTAKTISTLGKFLANDGVLSNGERILTTRMAKIIKTLMVTCGMYDSSGEFAVRVGIPSKSGVGGGICSVVPGKMGIGVYGPSLDKKGNSLAGGHLLEDLSAELSLNIFLEHHHHHH	not soluble
MHQNNGDYRVRGSRPSRSSEHAGPSLHCKKPEGSIRDTLRLSGSFKIYKEPMPELVCDIHLEKLAENIQKYSKIEERKYRENDMHVNDDSHSSDSRPTSDNEVSSSSDRNNDEPSVRRKRKSVENMCHEREHHGDHLQMQVASVIASNLGPMVEIVEKKLLQHKNAEKLLNDGREVFIKTLEEHNQKKEKVERKAKLVAIPPMKARNRRSSRNSLVYIDGPSTSESHSSMVQQVPIIDNIPEVLENETAVCSISSEADHNSRGIKDNQEFAIEISGEVSRTDDICDDFAVFLKKCTVLLTKFIDSYYDFRSTMKLKPEDAIEHWSAERLTKEEHAARVTRFDVAIARATRVQYNIDIKLLTKQSFVFDDDREAAINKRLARIERFVNEQHEEINWFCFSNFSLMDIGETKDRYCLGDFYDKAISMIPKVKDVPSVVQLAKECKMWSAFERILKQYNFEPLKVFEELQKMLEKDYFLPKGKIFCQFLLNVAQLFSYDVVKNEWSCIKQIDGTLFSGVPFDRDGNLLPTSQNSPTECSS	not soluble
MSLSNMTQQTRTQQARETMKRVYRYQAANQTRSVIRRSGKTRFIKDTDWERGVFWSCVAAAWLATDDAEYLEGVMNYTLHTGFRPGPNLRFADDLICCQAYLDVWPQIAVPEALEPTIKAVSAMVDEPKPGREDWWWCDSLFMAPATFAALSQRTGDARYLAYMDTAFWDAVDYLRDPDSGLFYRDHRYIPDGNGTELREENGEKVFWSRGIGWVLAAIPRLLARMPEDYTGRQRYLDLFTDLADKVIRYQQADGLWRTSLLDPQRFPAPESSATALFCYGLSWGINQGILAPETYLPVVEKAWDALQGCIHDNGMMGWVQLPAFNPRDVKFEHNMDYGAGAYLLAASEMLRLAEGHHHHHH	soluble
MGSDKIHHHHHHMVVRGRLKGVEAEFIDFHVHMPYWIRDPVKSCRRLLLEELTAGAISAVVIGVDASLETIKSRVTPREITEAAMEDFDYLAFQQVGYIGRMIMEPEKFLDDFLGDFHKHRRGPEDLRACRSVEPRFFYTIVSYKPGMEEEVAQIVRSDSSILGVKIFPTFHFTRPDSQRLYPVYKAVEEAGGLVVVHTGCDPGPWELTRFCREARPSYVARAAKRFENLVFVIAHLGAYSALKPGIYFEETLKALSLENVYADTSAADPFFAAMAVKEGYADKILFGSDYPYVSGYNVAMAVKDILSLDIDNNDKEAVLRYNAEKLLNSLPRGRQKPG	not soluble
MGYCIIIPAYNAARTLPAVVREVLGLGMPCLVVDDGSTDGTSATVEGLGVHLLRHDGNRGKGAALRTGFEWALAHGYSGVVTLDADGQHDPTAIPLLAATARERNVDILIASRDTQFREMAGLRSVWNRFGVWCMRKRTGFTITDSQSGFRWYSARLLKGVSLEASGYHLEMEILMKAWRGGFAIDSLPVAARVADGRATSHFRPVRDTWNICMTFLRHMLEHHHHHH	soluble
MTPLQQAQLSPQEEAVFDGDAISGSGLRFSELTRPVNLLVMGMSVLPPDVQNPPTETQNLRYLPQVNSFDGLADVMLMVKFDPETKKIAMLSIPRDTRTRIEGHGVRKINAANVEGGPALTATTVSNLLGGVGIDRYIRINVLGVGKLIDALGGVTVYVPKDMKYQDHSQHLYINLKAGKQHLNGDQVLQLLRFRHDELGDIGRIQRQQMVMRALMDQALNPVTVAQLPKILNVVKDNIDTNLTVEELVALVGFGVRTNRTNMQMLMLPGRFSEPNEYNASYWIPSKNGIAKLMAQHFGLESLSENPVNDPTAVRVAIQDSTGSDRSQLRPLINALEKAGYRNVYVANAWTEPLEVTNIIAQQGDGNSAESIRNALGFGEVRVESTGSLNSDISIQVGKDWLQQKSLLEDSIKFLEHHHHHH	soluble
MWLKVGGLLRGTGGQLGQTVGWPCGALGPGPHRWGPCGGSWAQKFYQDGPGRGLGEEDIRRAREARPRKTPRPQLSDRSRERKVPASRISRLANFGGLAVGLGLGVLAEMAKKSMPGGRLQSEGGSGLDSSPFLSEANAERIVQTLCTVRGAALKVGQMLSIQDNSFISPQLQHIFERVRQSADFMPRWQMLRVLEEELGRDWQAKVASLEEVPFAAASIGQVHQGLLRDGTEVAVKIQYPGIAQSIQSDVQNLLAVLKMSAALPAGLFAEQSLQALQQELAWECDYRREAACAQNFRQLLANDPFFRVPAVVKELCTTRVLGMELAGGVPLDQCQGLSQDLRNQICFQLLTLCLRELFEFRFMQTDPNWANFLYDASSHQVTLLDFGASREFGTEFTDHYIEVVKAAADGDRDCVLQKSRDLKFLTGFETKAFSDAHVEAVMILGEPFATQGPYDFGSGETARRIQDLIPVLLRHRLCPPPEETYALHRKLAGAFLACAHLRAHIACRDLFQDTYHRYWASRQPDAATAGSLPTKGDSWVDPS	not soluble
